Source: patent US20240109962A1 (SPARX BIOSCIENCE, published 2024)

Legend:
[1] = target: T1, human LILRB2 expressed on cells (293T-LILRB2, CHO-K1-LILRB2) (human, UniProt Q8N423 22-597); test: flow cytometry, 293T-LILRB2 cells
T1 construct: whole, on cells; the cell line is named under assay; also called HEK293T-LILRB2
From the text: The fluorescent signals were detected by flow cytometry.

[2] = target: T2, recombinant human LILRB2 protein (human, UniProt Q8N423 22-460, limits assumed); test: ELISA, coated recombinant human LILRB2; parameters: unit not given here
T2 construct: also called recombinant LILRB2 protein
Method: This affinity maturation library was screened against human LILRB2 to identify antibodies having high binding affinity to LILRB2. Briefly, an ELISA plate was coated with 0.1 ug/well recombinant human LILRB2 protein. Serial diluted maturated h#2E1 antibodies were incubated in the LILRB2 coated plate for 2 hrs. The plate was washed and a secondary HRP-labeled anti-human IgG was then added to each well. After being incubated at room temperature for 1 hour, the colorimetric ELISA signals were developed by adding the TMB substrate and reaction was stopped by 1M H3PO4. Table 7 below provides binding activities of exemplary matured antibodies to recombinant LILRB2 protein.

T2 sequence (Q8N423 22-460 limits assumed): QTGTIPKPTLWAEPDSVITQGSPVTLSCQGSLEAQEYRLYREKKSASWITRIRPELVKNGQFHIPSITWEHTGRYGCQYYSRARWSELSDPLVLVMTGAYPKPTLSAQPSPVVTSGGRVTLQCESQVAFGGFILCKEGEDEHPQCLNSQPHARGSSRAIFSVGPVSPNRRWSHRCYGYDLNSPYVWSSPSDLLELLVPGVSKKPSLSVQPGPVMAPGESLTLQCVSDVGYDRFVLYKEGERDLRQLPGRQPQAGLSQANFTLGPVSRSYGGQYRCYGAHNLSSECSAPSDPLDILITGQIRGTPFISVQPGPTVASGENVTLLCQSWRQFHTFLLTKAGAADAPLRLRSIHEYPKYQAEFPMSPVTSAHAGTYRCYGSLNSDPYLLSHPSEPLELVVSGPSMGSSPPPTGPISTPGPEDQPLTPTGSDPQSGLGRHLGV
T1 sequence (Q8N423 22-597): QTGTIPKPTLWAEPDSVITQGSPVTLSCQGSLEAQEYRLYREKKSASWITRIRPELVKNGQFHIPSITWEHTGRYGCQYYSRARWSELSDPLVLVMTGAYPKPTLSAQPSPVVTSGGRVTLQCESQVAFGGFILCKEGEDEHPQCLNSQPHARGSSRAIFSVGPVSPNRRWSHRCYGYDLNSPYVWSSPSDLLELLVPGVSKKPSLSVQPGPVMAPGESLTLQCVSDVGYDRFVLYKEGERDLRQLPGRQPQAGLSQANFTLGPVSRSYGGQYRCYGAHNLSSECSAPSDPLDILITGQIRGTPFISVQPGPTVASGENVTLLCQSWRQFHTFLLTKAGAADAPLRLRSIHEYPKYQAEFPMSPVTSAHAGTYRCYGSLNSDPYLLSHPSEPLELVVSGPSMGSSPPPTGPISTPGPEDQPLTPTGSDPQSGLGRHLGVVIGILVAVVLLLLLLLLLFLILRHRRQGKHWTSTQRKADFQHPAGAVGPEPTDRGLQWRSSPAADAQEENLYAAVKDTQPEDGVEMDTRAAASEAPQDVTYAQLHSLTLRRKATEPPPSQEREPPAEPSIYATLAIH

Row | Binder | Bmax [1] | Bmax [2]
1 | Antibody 2E1_GB7 (antibody, V domains shown) VH: EVQLVESGGGLVQPGGSLRLSCAVSGYSITSGYYWWWIRQAPGKGLEWVAYISYDGNNNYNPSLKNRFTISRDTSKNTFYLQMNSLRAEDTAVYYCAREESTMITTAWFAYWGQGTLVTVSS VL: DIQMTQSPSSLSASVGDRVTITCLASENIYSNLAWYQQKPGKAPKLLIYGATNLASGVPSRFSGSGSGTDYTLTISSLQPEDFATYYCQHFWDTPYTFGQGTKVEIK | 636000 | 1.48
2 | Antibody 2E1_FF3 (antibody, V domains shown) VH: EVQLVESGGGLVQPGGSLRLSCAVSGYSITSGYYWNWIRQAPGKGLEWVAYISYDGNNSYNPSLKNRFTISRDTSKNTFYLQMNSLRAEDTAVYYCAREESTMITTAWFAYWGQGTLVTVSS VL: DIQMTQSPSSLSASVGDRVTITCRASENIYSNLAWYQQKPGKAPKLLIYGATNLASGVPSRFSGSGSGTDYTLTISSLQPEDFATYYCQHFWDTPYTFGQGTKVEIK | 434000 | 1.17
3 | Antibody 2E1_GA4 (antibody, V domains shown) VH: EVQLVESGGGLVQPGGSLRLSCAVSGYSITSGYAWNWIRQAPGKGLEWVAYISYDGNNNYNPSLKNRFTISRDTSKNTFYLQMNSLRAEDTAVYYCAREESTMITTAWFAYWGQGTLVTVSS VL: DIQMTQSPSSLSASVGDRVTITCVASENIYSNLAWYQQKPGKAPKLLIYGATNLASGVPSRFSGSGSGTDYTLTISSLQPEDFATYYCQHFWDTPYTFGQGTKVEIK | 725000 | 1.61
4 | Antibody 2E1_GB8 (antibody, V domains shown) VH: EVQLVESGGGLVQPGGSLRLSCAVSGYSITSGYYWWWIRQAPGKGLEWVAYISYDGNNNYNPSLKNRFTISRDTSKNTFYLQMNSLRAEDTAVYYCAREESTMITTAWFAYWGQGTLVTVSS VL: DIQMTQSPSSLSASVGDRVTITCSASENIYSNLAWYQQKPGKAPKLLIYGATNLASGVPSRFSGSGSGTDYTLTISSLQPEDFATYYCQHFWDTPYTFGQGTKVEIK | 659000 | 1.47

More lines, now with the values ahead:

Row | Bmax [1] | Bmax [2] | Binder
5 | 690000 | – | Antibody 2E1_FE1 (antibody, V domains shown) VH: EVQLVESGGGLVQPGGSLRLSCAVSGYSITSGYYWNWIRQAPGKGLEWVAYISYDGNMNYNPSLKNRFTISRDTSKNTFYLQMNSLRAEDTAVYYCAREESTMITTAWFAYWGQGTLVTVSS VL: DIQMTQSPSSLSASVGDRVTITCRASENIYSNLAWYQQKPGKAPKLLIYGATNLASGVPSRFSGSGSGTDYTLTISSLQPEDFATYYCQHFWDTPYTFGQGTKVEIK
6 | 665000 | 1.65 | Antibody 2E1_GE6 (antibody, V domains shown) VH: EVQLVESGGGLVQPGGSLRLSCAVSGYSITSGYYWWWIRQAPGKGLEWVAYISYDGNNNYNPSLKNRFTISRDTSKNTFYLQMNSLRAEDTAVYYCAREESTMITTAWFAYWGQGTLVTVSS VL: DIQMTQSPSSLSASVGDRVTITCRASENIYSNNAWYQQKPGKAPKLLIYGATYLASGVPSRFSGSGSGTDYTLTISSLQPEDFATYYCQHFWDTPYTFGQGTKVEIK
7 | 697000 | 1.44 | Antibody 2E1_GC8 (antibody, V domains shown) VH: EVQLVESGGGLVQPGGSLRLSCAVSGYSITSGYYWWWIRQAPGKGLEWVAYISYDGNNNYNPSLKNRFTISRDTSKNTFYLQMNSLRAEDTAVYYCAREESTMITTAWFAYWGQGTLVTVSS VL: DIQMTQSPSSLSASVGDRVTITCRASENIYSNQAWYQQKPGKAPKLLIYGATNRASGVPSRFSGSGSGTDYTLTISSLQPEDFATYYCQHFWDTPYTFGQGTKVEIK
8 | 739000 | 1.62 | Antibody 2E1_GA1 (antibody, V domains shown) VH: EVQLVESGGGLVQPGGSLRLSCAVSGYSITSGYYWWWIRQAPGKGLEWVAYISYDGNNNYNPSLKNRFTISRDTSKNTFYLQMNSLRAEDTAVYYCAREESTMITTAWFAYWGQGTLVTVSS VL: DIQMTQSPSSLSASVGDRVTITCRASENIYSNLAWYQQKPGKAPKLLIYGATNLASGVPSRFSGSGSGTDYTLTISSLQPEDFATYYCQHFWDTPYTFGQGTKVEIK
